Experimental data from patent publication US20240368668A1, “SUBSTRATES AND BIOMARKERS OF ADAMTS7” (The Broad Institute, Inc., priority 2021, published 2024).
Square brackets hold non-standard residues; d marks the D form. Ends that are not written are not given here. Met(O) = CS(=O)CC[C@H](N)C(=O)O

The substances below were run against T1, mouse ADAMTS7 (Mus musculus, UniProt Q68SA9, E373Q) (assay: TMT10 TAILS N-terminomics, HUVEC experiment (process replicates, trypsin/AspN digest)). Settings: HUVEC TAILS HC; log fold change of N-terminal peptide, Ad-mADAMTS7 EQ over Luc.
T1 construct: Full-length mouse Adamts7 1-1857 (Uniprot Q68SA9, WT or E373Q catalytic mutant); expressed in transfected cells; host or cells: Human Coronary Artery Smooth Muscle Cells (HCA-SMC, Lonza), adenovirus 50 MOI
T1 sequence (Q68SA9 221-1657 E373Q): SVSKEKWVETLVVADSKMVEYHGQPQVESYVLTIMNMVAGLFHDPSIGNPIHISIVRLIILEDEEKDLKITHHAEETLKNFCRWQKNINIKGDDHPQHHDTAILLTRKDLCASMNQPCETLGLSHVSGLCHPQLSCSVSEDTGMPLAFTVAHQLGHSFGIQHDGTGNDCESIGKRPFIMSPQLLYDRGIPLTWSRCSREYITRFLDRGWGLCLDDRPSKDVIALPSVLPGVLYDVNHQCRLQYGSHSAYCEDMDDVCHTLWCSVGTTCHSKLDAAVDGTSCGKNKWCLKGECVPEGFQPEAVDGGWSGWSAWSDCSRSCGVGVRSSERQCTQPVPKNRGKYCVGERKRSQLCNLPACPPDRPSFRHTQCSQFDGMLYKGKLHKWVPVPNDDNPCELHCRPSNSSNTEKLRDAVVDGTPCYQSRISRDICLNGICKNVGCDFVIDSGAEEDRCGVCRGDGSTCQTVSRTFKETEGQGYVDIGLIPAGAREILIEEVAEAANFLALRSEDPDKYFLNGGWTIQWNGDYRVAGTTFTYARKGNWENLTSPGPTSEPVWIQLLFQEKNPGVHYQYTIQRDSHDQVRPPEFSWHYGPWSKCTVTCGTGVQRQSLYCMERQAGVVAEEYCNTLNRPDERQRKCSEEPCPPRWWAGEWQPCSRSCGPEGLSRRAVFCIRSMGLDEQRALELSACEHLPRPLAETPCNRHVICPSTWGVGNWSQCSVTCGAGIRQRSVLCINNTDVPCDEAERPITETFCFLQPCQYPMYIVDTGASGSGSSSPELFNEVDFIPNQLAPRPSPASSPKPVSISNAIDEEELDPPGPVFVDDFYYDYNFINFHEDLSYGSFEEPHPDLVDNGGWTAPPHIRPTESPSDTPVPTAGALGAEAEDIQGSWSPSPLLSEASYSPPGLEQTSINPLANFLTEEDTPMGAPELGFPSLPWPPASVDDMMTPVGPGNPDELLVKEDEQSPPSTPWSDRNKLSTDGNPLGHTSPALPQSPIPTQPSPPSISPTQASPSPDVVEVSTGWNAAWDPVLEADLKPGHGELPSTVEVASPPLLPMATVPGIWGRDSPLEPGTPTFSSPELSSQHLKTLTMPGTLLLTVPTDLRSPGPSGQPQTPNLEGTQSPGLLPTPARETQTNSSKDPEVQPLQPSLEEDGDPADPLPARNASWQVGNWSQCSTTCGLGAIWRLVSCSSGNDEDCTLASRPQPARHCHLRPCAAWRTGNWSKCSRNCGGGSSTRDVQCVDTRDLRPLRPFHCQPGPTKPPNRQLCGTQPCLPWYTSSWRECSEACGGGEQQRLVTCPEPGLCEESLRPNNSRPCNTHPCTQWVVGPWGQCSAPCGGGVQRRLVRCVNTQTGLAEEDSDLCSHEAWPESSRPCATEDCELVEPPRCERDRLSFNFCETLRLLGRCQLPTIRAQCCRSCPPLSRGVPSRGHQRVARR
Format: cell-based, human
Procedure, shortened: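 Full-length mouse ADAMTS7 (WT or E373Q mutant, C-terminal 3xFLAG) or luciferase was transduced via adenovirus, 50 MOI, into HCA-SMC (SMC1, SMC2) or HUVEC. SMC1: pooled media, technical triplicates 400 ug; SMC2: process triplicates 300 ug; HUVEC: process triplicates 200 ug, bFGF2 10 ng/ml.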

Row | Substance | logFC.mEQ.over.Luc
1 | BICD1_280 (NNDDKMNGHIHGPLVKLNGDYR; listed as Homo sapiens) | −0.08
2 | CLU_267 (FQHPPTEFIR; listed as Homo sapiens) | −0.08
3 | FN1_1624 (LVQTAVTTIPAPT; listed as Homo sapiens) | −0.16
4 | FN1_1743 (WESPQGQVSR; listed as Homo sapiens) | −0.19
5 | LTBP2_253 (GEGTLAR; listed as Homo sapiens) | −0.09
6 | LTBP3_164 (LSTGALPPLAPEG; listed as Homo sapiens) | −0.39
7 | MCFD2_55 (HLEGVINKPEA; listed as Homo sapiens) | 0.14
8 | PSAP_301 (LVEPIKKH; listed as Homo sapiens) | −0.06
9 | PTBP1_376 (AAAAAGR; listed as Homo sapiens) | 0.06
10 | PZP_578 (HAHLQVAAAPQSLCALR; listed as Homo sapiens) | −0.34
11 | UQCRH_76 (HGSPNNSERAMRAVGE[Met(O)]CKGPGAAR; listed as Homo sapiens) | 0.01

Results, then the substance that gave them:

Row | logFC.mEQ.over.Luc | Substance
12 | −0.39 | ASMT_321 (LSSAGFR; listed as Homo sapiens)
13 | −0.45 | CTGF_173 (TVVGPALAAYR; listed as Homo sapiens)
14 | −0.31 | CTGF_174 (VVGPALAAYR; listed as Homo sapiens)
15 | −0.49 | LTBP2_129 (QQQPAPR; listed as Homo sapiens)
16 | −0.13 | LTBP3_205 (HAAFLVPLGPGQISA; listed as Homo sapiens)
17 | −0.39 | LTBP3_221 (VQAPPPVVNVR; listed as Homo sapiens)
18 | −0.01 | THBS1_630 (FGQGVEHATANK; listed as Homo sapiens)
19 | 0.18 | ZYX_244 (PVSLANTQPR; listed as Homo sapiens)
